Source: IntAct's records for PubMed 31515488

B1: E3 ubiquitin-protein ligase RNF185 (Homo sapiens), Q96GF1 (parent)
chain: MASKGPSASASPENSSAGGPSGSSNGAGESGGQDSTFECNICLDTAKDAVISLCGHLFCWPCLHQWLETRPNRQVCPVCKAGISRDKVIPLYGRGSTGQQDPREKTPPRPQGQRPEPENRGGFQGFGFGDGGFQMSFGIGAFPFGIFATAFNINDGRPPPAVPGTPQYVDEQFLSRLFLFVALVIMFWLLIA
B2: Protein PALS1 (Homo sapiens), Q8N3R9 (parent)
chain: MTTSHMNGHVTEESDSEVKNVDLASPEEHQKHREMAVDCPGDLGTRMMPIRRSAQLERIRQQQEDMRRRREEEGKKQELDLNSSMRLKKLAQIPPKTGIDNPMFDTEEGIVLESPHYAVKILEIEDLFSSLKHIQHTLVDSQSQEDISLLLQLVQNKDFQNAFKIHNAITVHMNKASPPFPLISNAQDLAQEVQTVLKPVHHKEGQELTALLNTPHIQALLLAHDKVAEQEMQLEPITDERVYESIGQYGGETVKIVRIEKARDIPLGATVRNEMDSVIISRIVKGGAAEKSGLLHEGDEVLEINGIEIRGKDVNEVFDLLSDMHGTLTFVLIPSQQIKPPPAKETVIHVKAHFDYDPSDDPYVPCRELGLSFQKGDILHVISQEDPNWWQAYREGDEDNQPLAGLVPGKSFQQQREAMKQTIEEDKEPEKSGKLWCAKKNKKKRKKVLYNANKNDDYDNEEILTYEEMSLYHQPANRKRPIILIGPQNCGQNELRQRLMNKEKDRFASAVPHTTRSRRDQEVAGRDYHFVSRQAFEADIAAGKFIEHGEFEKNLYGTSIDSVRQVINSGKICLLSLRTQSLKTLRNSDLKPYIIFIAPPSQERLRALLAKEGKNPKPEELREIIEKTREMEQNNGHYFDTAIVNSDLDKAYQELLRLINKLDTEPQWVPSTWLR
partner: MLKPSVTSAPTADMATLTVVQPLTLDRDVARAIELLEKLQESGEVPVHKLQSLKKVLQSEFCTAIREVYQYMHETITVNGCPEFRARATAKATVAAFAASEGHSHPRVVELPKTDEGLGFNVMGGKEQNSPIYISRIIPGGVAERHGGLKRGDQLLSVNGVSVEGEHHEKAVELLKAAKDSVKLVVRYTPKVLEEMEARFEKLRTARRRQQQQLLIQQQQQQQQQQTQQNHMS
B3: Tuftelin-interacting protein 11 (Homo sapiens), Q9UBB9 (parent)
chain: MSLSHLYRDGEGRIDDDDDERENFEITDWDLQNEFNPNRQRHWQTKEEATYGVWAERDSDDERPSFGGKRARDYSAPVNFISAGLKKGAAEEAELEDSDDEEKPVKQDDFPKDFGPRKLKTGGNFKPSQKGFAGGTKSFMDFGSWERHTKGIGQKLLQKMGYVPGRGLGKNAQGIINPIEAKQRKGKGAVGAYGSERTTQSMQDFPVVDSEEEAEEEFQKELSQWRKDPSGSKKKPKYSYKTVEELKAKGRISKKLTAPQKELSQVKVIDMTGREQKVYYSYSQISHKHNVPDDGLPLQSQQLPQSGKEAKAPGFALPELEHNLQLLIDLTEQEIIQNDRQLQYERDMVVNLFHELEKMTEVLDHEERVISNLSKVLEMVEECERRMQPDCSNPLTLDECARIFETLQDKYYEEYRMSDRVDLAVAIVYPLMKEYFKEWDPLKDCTYGTEIISKWKSLLENDQLLSHGGQDLSADAFHRLIWEVWMPFVRNIVTQWQPRNCDPMVDFLDSWVHIIPVWILDNILDQLIFPKLQKEVENWNPLTDTVPIHSWIHPWLPLMQARLEPLYSPIRSKLSSALQKWHPSDSSAKLILQPWKDVFTPGSWEAFMVKNIVPKLGMCLGELVINPHQQHMDAFYWVIDWEGMISVSSLVGLLEKHFFPKWLQVLCSWLSNSPNYEEITKWYLGWKSMFSDQVLAHPSVKDKFNEALDIMNRAVSSNVGAYMQPGARENIAYLTHTERRKDFQYEAMQERREAENMAQRGIGVAASSVPMNFKDLIETKAEEHNIVFMPVIGKRHEGKQLYTFGRIVIYIDRGVVFVQGEKTWVPTSLQSLIDMAK
partner: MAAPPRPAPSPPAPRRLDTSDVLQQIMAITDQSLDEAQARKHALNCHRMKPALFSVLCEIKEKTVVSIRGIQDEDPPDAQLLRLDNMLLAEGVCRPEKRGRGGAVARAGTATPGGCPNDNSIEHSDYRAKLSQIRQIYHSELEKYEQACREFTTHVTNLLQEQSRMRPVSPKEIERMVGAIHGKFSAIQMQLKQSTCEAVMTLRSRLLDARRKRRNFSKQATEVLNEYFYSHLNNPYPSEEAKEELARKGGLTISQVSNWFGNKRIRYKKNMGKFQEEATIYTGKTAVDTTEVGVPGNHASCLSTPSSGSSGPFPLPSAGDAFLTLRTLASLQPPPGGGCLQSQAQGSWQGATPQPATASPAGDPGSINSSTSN
B4: E3 ubiquitin-protein ligase LNX (Homo sapiens), Q8TBB1 (parent)
chain: MNQPESANDPEPLCAVCGQAHSLEENHFYSYPEEVDDDLICHICLQALLDPLDTPCGHTYCTLCLTNFLVEKDFCPMDRKPLVLQHCKKSSILVNKLLNKLLVTCPFREHCTQVLQRCDLEHHFQTSCKGASHYGLTKDRKRRSQDGCPDGCASLTATAPSPEVSAAATISLMTDEPGLDNPAYVSSAEDGQPAISPVDSGRSNRTRARPFERSTIRSRSFKKINRALSVLRRTKSGSAVANHADQGRENSENTTAPEVFPRLYHLIPDGEITSIKINRVDPSESLSIRLVGGSETPLVHIIIQHIYRDGVIARDGRLLPGDIILKVNGMDISNVPHNYAVRLLRQPCQVLWLTVMREQKFRSRNNGQAPDAYRPRDDSFHVILNKSSPEEQLGIKLVRKVDEPGVFIFNVLDGGVAYRHGQLEENDRVLAINGHDLRYGSPESAAHLIQASERRVHLVVSRQVRQRSPDIFQEAGWNSNGSWSPGPGERSNTPKPLHPTITCHEKVVNIQKDPGESLGMTVAGGASHREWDLPIYVISVEPGGVISRDGRIKTGDILLNVDGVELTEVSRSEAVALLKRTSSSIVLKALEVKEYEPQEDCSSPAALDSNHNMAPPSDWSPSWVMWLELPRCLYNCKDIVLRRNTAGSLGFCIVGGYEEYNGNKPFFIKSIVEGTPAYNDGRIRCGDILLAVNGRSTSGMIHACLARLLKELKGRITLTIVSWPGTFL
partner: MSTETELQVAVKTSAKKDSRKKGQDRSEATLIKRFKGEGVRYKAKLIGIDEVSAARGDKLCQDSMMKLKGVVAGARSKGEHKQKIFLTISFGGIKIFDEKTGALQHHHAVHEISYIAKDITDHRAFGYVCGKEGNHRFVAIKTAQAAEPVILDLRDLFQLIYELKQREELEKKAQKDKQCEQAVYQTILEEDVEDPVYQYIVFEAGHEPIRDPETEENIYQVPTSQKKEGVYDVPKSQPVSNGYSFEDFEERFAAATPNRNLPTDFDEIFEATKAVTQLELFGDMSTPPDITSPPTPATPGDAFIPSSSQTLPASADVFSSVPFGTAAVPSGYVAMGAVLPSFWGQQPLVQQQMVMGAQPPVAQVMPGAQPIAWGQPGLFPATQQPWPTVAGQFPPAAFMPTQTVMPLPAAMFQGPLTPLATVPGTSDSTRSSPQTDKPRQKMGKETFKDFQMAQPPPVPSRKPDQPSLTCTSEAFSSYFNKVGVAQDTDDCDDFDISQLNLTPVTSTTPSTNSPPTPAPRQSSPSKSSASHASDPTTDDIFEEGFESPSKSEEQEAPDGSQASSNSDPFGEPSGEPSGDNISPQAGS
B5: Zinc finger protein 165 (Homo sapiens), P49910 (parent)
chain: MATEPKKAAAQNSPEDEGLLIVKIEEEEFIHGQDTCLQRSELLKQELCRQLFRQFCYQDSPGPREALSRLRELCCQWLKPEIHTKEQILELLVLEQFLTILPGDLQAWVHEHYPESGEEAVTILEDLERGTDEAVLQVQAHEHGQEIFQKKVSPPGPALNVKLQPVETKAHFDSSEPQLLWDCDNESENSRSMPKLEIFEKIESQRIISGRISGYISEASGESQDICKSAGRVKRQWEKESGESQRLSSAQDEGFGKILTHKNTVRGEIISHDGCERRLNLNSNEFTHQKSCKHGTCDQSFKWNSDFINHQIIYAGEKNHQYGKSFKSPKLAKHAAVFSGDKTHQCNECGKAFRHSSKLARHQRIHTGERCYECNECGKSFAESSDLTRHRRIHTGERPFGCKECGRAFNLNSHLIRHQRIHTREKPYECSECGKTFRVSSHLIRHFRIHTGEKPYECSECGRAFSQSSNLSQHQRIHMRENLLM
partner: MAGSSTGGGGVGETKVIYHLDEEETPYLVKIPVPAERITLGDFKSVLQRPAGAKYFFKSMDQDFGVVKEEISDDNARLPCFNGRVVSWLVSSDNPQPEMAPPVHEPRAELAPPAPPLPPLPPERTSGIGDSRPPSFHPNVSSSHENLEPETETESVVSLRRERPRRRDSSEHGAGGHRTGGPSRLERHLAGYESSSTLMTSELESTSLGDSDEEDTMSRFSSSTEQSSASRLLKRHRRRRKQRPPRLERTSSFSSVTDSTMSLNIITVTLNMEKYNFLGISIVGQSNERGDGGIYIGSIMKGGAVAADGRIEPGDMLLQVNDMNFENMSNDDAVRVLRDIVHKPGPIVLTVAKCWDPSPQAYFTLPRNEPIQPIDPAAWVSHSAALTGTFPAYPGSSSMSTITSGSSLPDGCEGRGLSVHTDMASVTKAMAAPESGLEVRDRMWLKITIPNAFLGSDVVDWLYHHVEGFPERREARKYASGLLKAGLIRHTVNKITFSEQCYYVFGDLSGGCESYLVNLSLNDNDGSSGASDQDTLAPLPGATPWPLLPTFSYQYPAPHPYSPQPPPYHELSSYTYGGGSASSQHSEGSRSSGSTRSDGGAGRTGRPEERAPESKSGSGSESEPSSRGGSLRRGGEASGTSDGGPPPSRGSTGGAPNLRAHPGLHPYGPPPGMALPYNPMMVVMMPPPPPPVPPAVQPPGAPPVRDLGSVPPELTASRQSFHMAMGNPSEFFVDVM

Variants of: B1
Conditions: with ub2e3_human UBE2E3, Q969T4
Chain of ub2e3_human UBE2E3, Q969T4 (Q969T4 whole entry): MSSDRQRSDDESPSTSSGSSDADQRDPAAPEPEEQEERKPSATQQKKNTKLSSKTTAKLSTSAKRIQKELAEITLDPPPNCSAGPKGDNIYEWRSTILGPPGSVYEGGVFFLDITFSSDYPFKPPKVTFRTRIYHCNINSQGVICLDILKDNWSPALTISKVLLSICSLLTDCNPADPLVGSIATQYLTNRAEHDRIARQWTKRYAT

effect of a mutation on the interaction | Variant
with no effect | A17T

Variants of: B2
Conditions: with lin7a_human LIN7A

effect of a mutation on the interaction | Variant
with no effect | S141Y

Variants of: B3
Conditions: with pbx4_human PBX4, Q9BYU1

effect of a mutation on the interaction | Variant
with no effect | S688L
with no effect | R8Q

Variants of: B4
Conditions: with dab1_human DAB1, O75553

effect of a mutation on the interaction | Variant
with no effect | R342H

Variants of: B5
Conditions: with dvl2_human DVL2, O14641

effect of a mutation on the interaction | Variant
with no effect | N347Y
